# Measurements reported in IntAct's records for PubMed 31515488.
# B1: Methylthioribulose-1-phosphate dehydratase (Homo sapiens), Q96GX9 (parent)
# chain: MSGCDAREGDCCSRRCGAQDKEHPRYLIPELCKQFYHLGWVTGTGGGISLKHGDEIYIAPSGVQKERIQPEDMFVCDINEKDISGPSPSKKLKKSQCTPLFMNAYTMRGAGAVIHTHSKAAVMATLLFPGREFKITHQEMIKGIKKCTSGGYYRYDDMLVVPIIENTPEEKDLKDRMAHAMNEYPDSCAVLVRRHGVYVWGETWEKAKTMCECYDYLFDIAVSMKKVGLDPSQLPVGENGIV
# B2: Notch homolog 2 N-terminal-like protein A (Homo sapiens), Q7Z3S9 (parent)
# chain: MCVTYHNGTGYCKCPEGFLGEYCQHRDPCEKNRCQNGGTCVAQAMLGKATCRCASGFTGEDCQYSTSHPCFVSRPCLNGGTCHMLSRDTYECTCQVGFTGKECQWTDACLSHPCANGSTCTTVANQFSCKCLTGFTGQKCETDVNECDIPGHCQHGGTCLNLPGSYQCQCLQGFTGQYCDSLYVPCAPSPCVNGGTCRQTGDFTFECNCLPETVRRGTELWERDREVWNGKEHDEN
# partner: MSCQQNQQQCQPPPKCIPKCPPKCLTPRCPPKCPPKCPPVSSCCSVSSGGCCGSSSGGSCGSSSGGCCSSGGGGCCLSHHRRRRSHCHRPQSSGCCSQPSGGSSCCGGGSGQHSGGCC
# B3: Glutathione S-transferase Mu 5 (Homo sapiens), P46439 (parent)
# chain: MPMTLGYWDIRGLAHAIRLLLEYTDSSYVEKKYTLGDAPDYDRSQWLNEKFKLGLDFPNLPYLIDGAHKITQSNAILRYIARKHNLCGETEEEKIRVDILENQVMDNHMELVRLCYDPDFEKLKPKYLEELPEKLKLYSEFLGKRPWFAGDKITFVDFLAYDVLDMKRIFEPKCLDAFLNLKDFISRFEGLKKISAYMKSSQFLRGLLFGKSATWNSK
# partner: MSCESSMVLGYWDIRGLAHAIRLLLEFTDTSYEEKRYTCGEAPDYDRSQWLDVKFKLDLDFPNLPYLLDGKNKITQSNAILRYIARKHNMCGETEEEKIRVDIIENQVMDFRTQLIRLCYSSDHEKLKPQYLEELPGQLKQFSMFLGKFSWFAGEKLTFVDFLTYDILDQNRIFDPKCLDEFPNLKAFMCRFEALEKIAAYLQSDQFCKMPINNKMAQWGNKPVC
# B4: Pre-B-cell leukemia transcription factor 4 (Homo sapiens), Q9BYU1 (parent)
# chain: MAAPPRPAPSPPAPRRLDTSDVLQQIMAITDQSLDEAQARKHALNCHRMKPALFSVLCEIKEKTVVSIRGIQDEDPPDAQLLRLDNMLLAEGVCRPEKRGRGGAVARAGTATPGGCPNDNSIEHSDYRAKLSQIRQIYHSELEKYEQACREFTTHVTNLLQEQSRMRPVSPKEIERMVGAIHGKFSAIQMQLKQSTCEAVMTLRSRLLDARRKRRNFSKQATEVLNEYFYSHLNNPYPSEEAKEELARKGGLTISQVSNWFGNKRIRYKKNMGKFQEEATIYTGKTAVDTTEVGVPGNHASCLSTPSSGSSGPFPLPSAGDAFLTLRTLASLQPPPGGGCLQSQAQGSWQGATPQPATASPAGDPGSINSSTSN
# partner: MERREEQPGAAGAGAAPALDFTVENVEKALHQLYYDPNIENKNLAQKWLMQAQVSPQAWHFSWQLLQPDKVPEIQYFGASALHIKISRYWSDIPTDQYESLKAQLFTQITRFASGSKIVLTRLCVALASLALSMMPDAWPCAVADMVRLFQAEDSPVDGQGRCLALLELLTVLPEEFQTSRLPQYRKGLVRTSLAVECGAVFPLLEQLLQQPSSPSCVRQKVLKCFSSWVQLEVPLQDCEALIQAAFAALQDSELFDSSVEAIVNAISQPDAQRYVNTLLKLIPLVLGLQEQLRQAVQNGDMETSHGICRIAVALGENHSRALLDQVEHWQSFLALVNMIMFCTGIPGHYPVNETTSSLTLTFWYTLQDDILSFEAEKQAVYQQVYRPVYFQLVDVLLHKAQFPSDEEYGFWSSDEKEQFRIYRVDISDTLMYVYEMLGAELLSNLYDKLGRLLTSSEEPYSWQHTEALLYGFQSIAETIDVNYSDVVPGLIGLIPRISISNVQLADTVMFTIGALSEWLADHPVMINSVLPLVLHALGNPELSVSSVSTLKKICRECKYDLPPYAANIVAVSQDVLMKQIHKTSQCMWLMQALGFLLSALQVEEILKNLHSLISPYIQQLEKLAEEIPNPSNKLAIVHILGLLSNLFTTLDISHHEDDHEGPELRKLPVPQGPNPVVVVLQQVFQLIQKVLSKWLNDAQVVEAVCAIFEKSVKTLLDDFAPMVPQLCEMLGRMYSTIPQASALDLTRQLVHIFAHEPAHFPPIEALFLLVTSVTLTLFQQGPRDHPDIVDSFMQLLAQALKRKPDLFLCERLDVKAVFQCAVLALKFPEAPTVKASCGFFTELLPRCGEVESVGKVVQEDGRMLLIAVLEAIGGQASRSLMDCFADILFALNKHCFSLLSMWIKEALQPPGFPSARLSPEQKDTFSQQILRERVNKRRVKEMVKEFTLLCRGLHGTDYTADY
# B5: KAT8 regulatory NSL complex subunit 1 (Homo sapiens), Q7Z3B3 (parent)
# chain: MAAMAPALTDAAAEAHHIRFKLAPPSSTLSPGSAENNGNANILIAANGTKRKAIAAEDPSLDFRNNPTKEDLGKLQPLVASYLCSDVTSVPSKESLKLQGVFSKQTVLKSHPLLSQSYELRAELLGRQPVLEFSLENLRTMNTSGQTALPQAPVNGLAKKLTKSSTHSDHDNSTSLNGGKRALTSSALHGGEMGGSESGDLKGGMTNCTLPHRSLDVEHTTLYSNNSTANKSSVNSMEQPALQGSSRLSPGTDSSSNLGGVKLEGKKSPLSSILFSALDSDTRITALLRRQADIESRARRLQKRLQVVQAKQVERHIQHQLGGFLEKTLSKLPNLESLRPRSQLMLTRKAEAALRKAASETTTSEGLSNFLKSNSISEELERFTASGIANLRCSEQAFDSDVTDSSSGGESDIEEEELTRADPEQRHVPLRRRSEWKWAADRAAIVSRWNWLQAHVSDLEYRIRQQTDIYKQIRANKGLIVLGEVPPPEHTTDLFLPLSSEVKTDHGTDKLIESVSQPLENHGAPIIGHISESLSTKSCGALRPVNGVINTLQPVLADHIPGDSSDAEEQLHKKQRLNLVSSSSDGTCVAARTRPVLSCKKRRLVRPNSIVPLSKKVHRNSTIRPGCDVNPSCALCGSGSINTMPPEIHYEAPLLERLSQLDSCVHPVLAFPDDVPTSLHFQSMLKSQWQNKPFDKIKPPKKLSLKHRAPMPGSLPDSARKDRHKLVSSFLTTAKLSHHQTRPDRTHRQHLDDVGAVPMVERVTAPKAERLLNPPPPVHDPNHSKMRLRDHSSERSEVLKHHTDMSSSSYLAATHHPPHSPLVRQLSTSSDSPAPASSSSQVTASTSQQPVRRRRGESSFDINNIVIPMSVAATTRVEKLQYKEILTPSWREVDLQSLKGSPDEENEEIEDLSDAAFAALHAKCEEMERARWLWTTSVPPQRRGSRSYRSSDGRTTPQLGSANPSTPQPASPDVSSSHSLSEYSHGQSPRSPISPELHSAPLTPVARDTPRHLASEDTRCSTPELGLDEQSVQPWERRTFPLAHSPQAECEDQLDAQERAARCTRRTSGSKTGRETEAAPTSPPIVPLKSRHLVAAATAQRPTHR
# partner: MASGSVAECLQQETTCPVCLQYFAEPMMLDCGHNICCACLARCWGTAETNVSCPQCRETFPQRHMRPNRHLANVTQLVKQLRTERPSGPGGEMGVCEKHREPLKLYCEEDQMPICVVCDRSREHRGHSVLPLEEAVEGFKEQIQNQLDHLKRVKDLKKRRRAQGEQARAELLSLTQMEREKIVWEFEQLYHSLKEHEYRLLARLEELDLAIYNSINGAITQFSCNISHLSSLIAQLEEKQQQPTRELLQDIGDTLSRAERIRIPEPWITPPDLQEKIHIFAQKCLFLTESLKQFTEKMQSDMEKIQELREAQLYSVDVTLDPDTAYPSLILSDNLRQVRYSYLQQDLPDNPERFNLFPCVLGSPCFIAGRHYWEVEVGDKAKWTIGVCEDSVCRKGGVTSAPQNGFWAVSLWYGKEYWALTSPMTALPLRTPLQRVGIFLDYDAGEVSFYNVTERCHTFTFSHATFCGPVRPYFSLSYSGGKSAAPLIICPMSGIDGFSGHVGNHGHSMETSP
# B6: Centrin-1 (Homo sapiens), Q12798 (parent)
# chain: MASGFKKPSAASTGQKRKVAPKPELTEDQKQEVREAFDLFDVDGSGTIDAKELKVAMRALGFEPRKEEMKKMISEVDREGTGKISFNDFLAVMTQKMSEKDTKEEILKAFRLFDDDETGKISFKNLKRVANELGENLTDEELQEMIDEADRDGDGEVNEEEFLRIMKKTSLY
# partner: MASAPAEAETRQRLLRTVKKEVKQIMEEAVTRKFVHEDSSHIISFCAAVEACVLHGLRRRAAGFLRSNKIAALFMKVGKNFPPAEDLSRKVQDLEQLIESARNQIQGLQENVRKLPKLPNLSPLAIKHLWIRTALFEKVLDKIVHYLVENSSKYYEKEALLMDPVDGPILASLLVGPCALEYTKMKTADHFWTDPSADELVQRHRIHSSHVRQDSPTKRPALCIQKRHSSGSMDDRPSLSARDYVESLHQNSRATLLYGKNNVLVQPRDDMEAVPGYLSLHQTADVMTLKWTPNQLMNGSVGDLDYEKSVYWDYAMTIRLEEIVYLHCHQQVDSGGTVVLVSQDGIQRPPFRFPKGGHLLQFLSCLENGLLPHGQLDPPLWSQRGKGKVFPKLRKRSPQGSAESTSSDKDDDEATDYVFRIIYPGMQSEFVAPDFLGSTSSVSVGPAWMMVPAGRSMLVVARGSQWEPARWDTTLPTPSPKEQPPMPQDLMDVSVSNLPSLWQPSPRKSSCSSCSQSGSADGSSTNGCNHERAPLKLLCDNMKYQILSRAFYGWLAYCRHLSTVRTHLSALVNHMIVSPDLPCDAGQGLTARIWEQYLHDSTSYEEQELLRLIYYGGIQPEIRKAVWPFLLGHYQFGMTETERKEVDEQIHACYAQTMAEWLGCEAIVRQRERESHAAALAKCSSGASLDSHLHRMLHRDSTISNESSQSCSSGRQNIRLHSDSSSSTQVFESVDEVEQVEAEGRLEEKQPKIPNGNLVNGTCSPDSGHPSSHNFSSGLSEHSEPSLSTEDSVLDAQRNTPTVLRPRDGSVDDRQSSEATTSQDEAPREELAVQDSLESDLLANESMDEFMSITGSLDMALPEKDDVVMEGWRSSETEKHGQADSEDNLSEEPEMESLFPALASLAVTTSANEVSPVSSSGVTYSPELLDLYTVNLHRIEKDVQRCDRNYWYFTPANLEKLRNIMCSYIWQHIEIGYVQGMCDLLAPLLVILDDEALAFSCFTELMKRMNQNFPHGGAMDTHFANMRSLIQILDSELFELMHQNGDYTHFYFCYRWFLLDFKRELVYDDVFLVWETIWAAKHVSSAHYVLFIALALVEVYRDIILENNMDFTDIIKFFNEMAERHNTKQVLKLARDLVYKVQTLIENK
# Variants of: B1
# Settings: with ntaq1_human NTAQ1, Q96HA8
row,Variant,effect of a mutation on the interaction
1,M181V,with no effect
2,G111A,with no effect

# Variants of: B2
# Settings: with lce1b_human LCE1B
row,Variant,effect of a mutation on the interaction
1,R74Q,with no effect
2,A115T,with no effect

# Variants of: B3
# Settings: with gstm3_human GSTM3, P21266
row,Variant,effect of a mutation on the interaction
1,L179P,with no effect

# Variants of: B4
# Settings: with ipo13_human IPO13, O94829
row,Variant,effect of a mutation on the interaction
1,R327Q,with no effect
2,T154M,with no effect
3,T283M,with no effect

# Variants of: B5
# Settings: with tri27_human TRIM27, P14373
row,Variant,effect of a mutation on the interaction
1,K104T,with no effect
2,N225D,with no effect

# Variants of: B6
# Settings: with sgsm1_human SGSM1, Q2NKQ1
row,Variant,effect of a mutation on the interaction
1,M72T,with no effect
